Test results from article PMC3406928 (Hypertension, 2012).

Target: T1, angiotensin type 2 receptor (human (endogenous in RPTCs), UniProt P50052 1-363)
T1 sequence (looked up): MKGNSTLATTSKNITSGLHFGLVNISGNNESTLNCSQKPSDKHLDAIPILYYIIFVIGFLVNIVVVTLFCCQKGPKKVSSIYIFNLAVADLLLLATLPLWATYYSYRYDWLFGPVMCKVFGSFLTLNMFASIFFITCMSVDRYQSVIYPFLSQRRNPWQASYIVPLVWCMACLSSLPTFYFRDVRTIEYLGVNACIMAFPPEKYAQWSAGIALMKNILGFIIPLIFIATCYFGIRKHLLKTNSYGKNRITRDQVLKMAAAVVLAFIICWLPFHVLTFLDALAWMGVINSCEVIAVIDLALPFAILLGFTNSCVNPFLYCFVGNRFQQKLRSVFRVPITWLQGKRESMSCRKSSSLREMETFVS
Assay: FRET or BRET

- fold increase of corrected FRET after FEN stimulation vs. control: 1.96 fold
B1: dopamine D1 receptor (receptor, human (endogenous in nRPTCs), UniProt P21728 1-446, looked up)
chain: MRTLNTSAMDGTGLVVERDFSVRILTACFLSLLILSTLLGNTLVCAAVIRFRHLRSKVTNFFVISLAVSDLLVAVLVMPWKAVAEIAGFWPFGSFCNIWVAFDIMCSTASILNLCVISVDRYWAISSPFRYERKMTPKAAFILISVAWTLSVLISFIPVQLSWHKAKPTSPSDGNATSLAETIDNCDSSLSRTYAISSSVISFYIPVAIMIVTYTRIYRIAQKQIRRIAALERAAVHAKNCQTTTGNGKPVECSQPESSFKMSFKRETKVLKTLSVIMGVFVCCWLPFFILNCILPFCGSGETQPFCIDSNTFDVFVWFGWANSSLNPIIYAFNADFRKAFSTLLGCYRLCPATNNAIETVSINNNGAAMFSSHHEPRGSISKECNLVYLIPHAVGSSEDLKKEEAAGIARPLEKLSPALSVILDYDTDVSLEKIQPITQNGQHPT
